Changes are numbered by the printed parent chain. One block for each binder: values may come before it.
Columns and labels:
[1] = molecular target: T1, 재조합 인간 ASM(acid sphingomyelinase) 단백질 (human, UniProt P17405 62-630, limits assumed); assay: ELISA, recombinant human ASM coated at 1 ㎍/㎖, anti-mouse IgG-HRP
T1 construct: Recombinant protein, bought (R&D systems in the ELISA); also called 인간 ASM 단백질; recombinant human ASM protein
T1 sequence: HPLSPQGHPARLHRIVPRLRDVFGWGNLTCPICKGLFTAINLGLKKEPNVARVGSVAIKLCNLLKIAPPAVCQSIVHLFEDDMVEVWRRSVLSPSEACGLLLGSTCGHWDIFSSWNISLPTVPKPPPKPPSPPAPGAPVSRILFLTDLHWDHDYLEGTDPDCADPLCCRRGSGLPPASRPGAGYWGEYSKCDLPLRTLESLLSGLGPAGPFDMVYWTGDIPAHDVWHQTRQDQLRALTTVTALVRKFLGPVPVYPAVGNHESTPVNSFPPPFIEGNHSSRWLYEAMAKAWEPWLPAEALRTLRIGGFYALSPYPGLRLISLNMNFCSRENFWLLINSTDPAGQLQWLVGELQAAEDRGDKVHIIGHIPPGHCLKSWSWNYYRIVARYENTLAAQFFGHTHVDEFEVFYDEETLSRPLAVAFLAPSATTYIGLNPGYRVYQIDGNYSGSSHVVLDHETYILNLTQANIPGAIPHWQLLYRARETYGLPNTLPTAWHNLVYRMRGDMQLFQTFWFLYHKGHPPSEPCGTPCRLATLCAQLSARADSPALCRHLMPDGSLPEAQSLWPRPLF

[2] = molecular target: T1, 재조합 인간 ASM(acid sphingomyelinase) 단백질; assay: BLI (Octet QK384), human ASM amine-coupled on AR2G sensor, antibody 0.4, 2, 10 nM
[3] = molecular target: T2, 재조합 마우스 ASM(acid sphingomyelinase) 단백질 (mouse, UniProt Q04519 45-626, limits assumed); assay: BLI (Octet QK384), mouse ASM amine-coupled on AR2G sensor, antibody 0.4, 2, 10 nM
T2 construct: Recombinant protein; also called 마우스 ASM 단백질; recombinant mouse ASM protein
T2 sequence: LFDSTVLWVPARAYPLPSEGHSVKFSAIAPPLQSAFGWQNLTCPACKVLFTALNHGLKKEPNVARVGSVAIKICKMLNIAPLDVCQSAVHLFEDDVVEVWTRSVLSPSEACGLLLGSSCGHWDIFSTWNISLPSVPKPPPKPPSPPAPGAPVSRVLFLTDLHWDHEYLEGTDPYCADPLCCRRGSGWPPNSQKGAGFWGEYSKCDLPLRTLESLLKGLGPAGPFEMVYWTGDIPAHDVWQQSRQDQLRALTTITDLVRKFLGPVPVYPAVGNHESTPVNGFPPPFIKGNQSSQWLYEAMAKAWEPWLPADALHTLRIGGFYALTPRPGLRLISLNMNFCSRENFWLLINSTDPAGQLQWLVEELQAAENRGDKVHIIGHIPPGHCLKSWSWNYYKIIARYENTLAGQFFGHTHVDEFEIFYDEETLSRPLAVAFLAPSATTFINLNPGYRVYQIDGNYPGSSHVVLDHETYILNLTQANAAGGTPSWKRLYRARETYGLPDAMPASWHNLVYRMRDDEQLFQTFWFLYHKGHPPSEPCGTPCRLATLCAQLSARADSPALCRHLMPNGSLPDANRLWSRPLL

[4] = molecular target: T2, 재조합 마우스 ASM(acid sphingomyelinase) 단백질; assay: BLI (Octet QK384), mouse ASM amine-coupled on AR2G sensor, antibody 0.4, 2, 10 nM; poor fit (RMax 0.0185, Full R2 0.5527), text does not count it as binding
[5] = molecular target: T2, 재조합 마우스 ASM(acid sphingomyelinase) 단백질; assay: BLI (Octet QK384), mouse ASM amine-coupled on AR2G sensor, antibody 0.4, 2, 10 nM; no signal (RMax 0, Full R2 0), text does not count it as binding

B1: #9123 항체 (antibody, mouse IgG1, V domains shown)
VH: EVQLLESGGGLVQPGGSLRLSCAASGFTFSDYAMSWVRQAPGKGLEWVSAISYGGGNIYYADSVKGRFTISRDNSKNTLYLQMNSLRAEDTAVYYCARVGGMCTRRQCYYDYGMDVWGQGTLVTVSS
VL: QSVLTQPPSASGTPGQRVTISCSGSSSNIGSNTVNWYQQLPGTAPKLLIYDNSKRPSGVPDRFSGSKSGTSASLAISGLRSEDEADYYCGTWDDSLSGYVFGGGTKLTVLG
notes: also called #9123 mIgG1
EC50 [1]: 0.758 nM

B5: #9104 항체 (antibody, mouse IgG1, V domains shown)
VH: EVQLLESGGGLVQPGGSLRLSCAASGFTFSNYYMSWVRQAPGKGLEWVSGIYYGSGNIYYADSVKGRFTISRDNSKNTLYLQMNSLRAEDTAVYYCARDTPGFDYWGQGTLVTVSS
VL: QSVLTQPPSASGTPGQRVTISCTGSSSNIGNNAVNWYQQLPGTAPKLLIYYDSHRPSGVPDRFSGSKSGTSASLAISGLRSEDEADYYCGAWDYSLSAYVFGGGTKLTVLG
EC50 [1]: 1.95 nM
Kd [2]: 0.209 nM
koff [2]: 8.18e-05 s⁻¹
kon [2]: 392000 M⁻¹ s⁻¹
Kd [3]: 0.638 nM
koff [3]: 0.000198 s⁻¹
kon [3]: 310000 M⁻¹ s⁻¹

B6: #9108 항체 (antibody, mouse IgG1, V domains shown)
VH: EVQLLESGGGLVQPGGSLRLSCAASGFTFSNYAMSWVRQAPGKGLEWVSAIYPGGGSIYYADSVKGRFTISRDNSKNTLYLQMNSLRAEDTAVYYCARDVLGLTPKPFDYWGQGTLVTVSS
VL: B5 VL with I20L, N31S, A33T, N35Y, Y51A, D52N, H54Q, A91S, A98G
EC50 [1]: 0.327 nM
Kd [2]: 0.119 nM
koff [2]: 2.96e-05 s⁻¹
kon [2]: 249000 M⁻¹ s⁻¹
Kd [3]: 3.39 nM
koff [3]: 0.00156 s⁻¹
kon [3]: 459000 M⁻¹ s⁻¹

Second part, the binder after the results:

EC50 [1]: 0.0954 nM
Kd [2]: 0.252 nM
koff [2]: 0.000105 s⁻¹
kon [2]: 416000 M⁻¹ s⁻¹
Kd [3]: 0.498 nM
koff [3]: 0.000243 s⁻¹
kon [3]: 489000 M⁻¹ s⁻¹
B2: #9102 항체 (antibody, mouse IgG1, V domains shown)
VH: B5 VH with N31G, G50L, Y52S, Y53P, N57S, R98K, D99S, T100W, P101H, G102H
VL: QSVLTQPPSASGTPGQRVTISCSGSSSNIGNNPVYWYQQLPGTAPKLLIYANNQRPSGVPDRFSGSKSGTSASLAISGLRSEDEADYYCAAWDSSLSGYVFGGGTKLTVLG

Kd [4]: 0.0425 nM
koff [4]: 0.000159 s⁻¹
kon [4]: 3.76e+06 M⁻¹ s⁻¹
EC50 [1]: 0.0815 nM
Kd [2]: 1.16 nM
koff [2]: 0.000728 s⁻¹
kon [2]: 626000 M⁻¹ s⁻¹
B3: #9101 항체 (antibody, mouse IgG1, V domains shown)
VH: B5 VH with Y33A, Y53P, G54N, S55G, I58K, R98K, D99N, T100A, P101Y, G102R
VL: B5 VL with T23S, A33Y, N35S, Y51A, H54K, S77G, A91S, S97N

Kd [2]: 0.564 nM
koff [2]: 0.000656 s⁻¹
kon [2]: 1.16e+06 M⁻¹ s⁻¹
Kd [5]: < 1 pM
koff [5]: < 1e-07 s⁻¹
kon [5]: 1e+06 M⁻¹ s⁻¹
B4: #9113 항체 (antibody, mouse IgG1, V domains shown)
VH: EVQLLESGGGLVQPGGSLRLSCAASGFTFSSYYMSWVRQAPGKGLEWVSSISPGGSSIYYADSVKGRFTISRDNSKNTLYLQMNSLRAEDTAVYYCAKGASLFDYWGQGTLVTVSS
VL: B5 VL with T23S, N35S, Y51S, S53N, H54K, A91T, Y94A, S97N
notes: also called #9113 mIgG1
